Test: yeast display, Sf9 membrane polyspecificity reagent, FACS + sequencing; frameworks hold sequencing errors
In short: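 A nanobody's polyreactivity label depends on the gate it was sorted from. Yeast display cells were stained with 10% biotinylated, detergent-solubilized Sf9 membrane reagent for 1 hour at 4 °C, enriched on streptavidin microbeads and sorted by FACS. The low and high (top ~1%) gates were set on anti-HA fluorescence for expression and streptavidin fluorescence for reagent binding.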

With “QVQLVESGGGLVQAGGSLRLSCAASGFTFFKYAMGWYRQAPGKERELVAAISSSGGSTYYADSVKGRFTISRDNAKNTVYLQMNSLKPEDSAVYYCNRPAAVYFKLVTAYDYWGQGTQVTVSS” as the sequence, how does the “polyreactivity (PSR sort gate)” value read?
The value was “high polyreactivity”.

Which “polyreactivity (PSR sort gate)” value does the source give for “QVQLVESGGGLVQAGGSLRLSCAASGFTFFLNAMVWSRPAPGKERELVAAITYSGDSTYYADSVKGRFTISRDNAKNTVYLQMNSLKPEDTAVYYCAAASKFGLYEYEYWGQGTQVTVSS” here?
Its value is “low polyreactivity”.

For “QVQLVESGGGLVQAGGSLRLSCAASGFTFFLYTMGWYRQAPGKERELVATITSAGTTNYADSVKGRFTISRDNAKNTVYLQMHSLKPEDTAVDYCNADRWEYDYWGQGTQVTVSS”, which “polyreactivity (PSR sort gate)” value is on record?
Its value is “low polyreactivity”.

Which “polyreactivity (PSR sort gate)” value does the source give for “QVQLVESGGGLVQAGGSLRLSCAASGFTFFSKYVMGWYSQAPRKERELVAAISSSGGTTYYADSVKGRFTISRDNAKNTVYLQMNSLKPEDTAVYYCAARLVSSTFQYNMYYWGQGTQVTVSS” here?
Its value is “high polyreactivity”.

With “QVQLVESGGGLVQAGGSLRLSCAASGFTFFSNAMGWYRQAPGKEREFVASISRSGGRTYYADSVKGRFTISRDNAKNTVYLQMNSLKPEDTAVYYCAADVPYYLHNHRYGYWGQGTQVTVSS” as the sequence, how does the “polyreactivity (PSR sort gate)” value read?
Its value is “high polyreactivity”.

Which “polyreactivity (PSR sort gate)” value does the source give for “QVQLVESGGGLVQAGGSLRLSCAASGFTFFYYVMGWYRQAPGKERELVAAISSGGSTYYADSVKGRFTISRDNAKNTVYLQMNSLKPEDTAVYYCNAVYRSTWWGYDYWGQGTQVTVSS” here?
Its value is “high polyreactivity”.

For “QVQLVESGGGLVQAGGSLRLSCAASGFTFFYYVMGWYRQAPGKERELVAAITRGGSTYYADSVKGRFTISRDNAKNTVYLQMNSLKPEDTAVYYCNVAEPGYYYGYGDYGMDYWGQGTQVTVSS”, which “polyreactivity (PSR sort gate)” value is on record?
The value was “high polyreactivity”.

Which “polyreactivity (PSR sort gate)” value does the source give for “QVQLVESGGGLVQAGGSLRLSCAASGFTFGANVMGWYRQAPGKERELVAAINTRGSRTYYADSVKGRFTISRDIAKNTVYLQMNSLKPEDTAVYYCAAALRKEYDYWGQGTQVTVSS” here?
Its value is “high polyreactivity”.

Which “polyreactivity (PSR sort gate)” value does the source give for “QVQLVESGGGLVQAGGSLRLSCAASGFTFGANVMGWYRQAPGKERELVAAITSSGGSTYYADSVKGRFTISRDKAKNTVYLQMYSLKPEDTAVYYCNRRRGAYYGYYWGQGTQVTVSS” here?
Its value is “high polyreactivity”.

Which “polyreactivity (PSR sort gate)” value does the source give for “QVQLVESGGGLVQAGGSLRLSCAASGFTFGDYAMYWVRQAPGKGLEWVSSIDSRGGSTYYADSVKGRFTISRDNAKNTVYLQMNSLKPEDTAVYYCAKPGNHRYDYWGQGTQVTVSS” here?
Its value is “high polyreactivity”.

Which “polyreactivity (PSR sort gate)” value does the source give for “QVQLVESGGGLVQAGGSLRLSCAASGFTFGENAIGWYRQAPGKERELVAAIRYSGGSTYYADSVKGRFTISRDNAKNTVYLQMNSLKPEDTAVYYCNADTYALGAAVIPGDEYWGQGTQVTVSS” here?
The value was “low polyreactivity”.

With “QVQLVESGGGLVQAGGSLRLSCAASGFTFGENDMGWYRQAPGKERELVATISYSGDSTYYAVSVKGLFTISRVNGKNTVYLHMNSLKPEDTAVYYCAAPLPHRVYDEGYWRQGTQVTVSS” as the sequence, how does the “polyreactivity (PSR sort gate)” value read?
Its value is “low polyreactivity”.

Which “polyreactivity (PSR sort gate)” value does the source give for “QVQLVESGGGLVQAGGSLRLSCAASGFTFGFNTMGWYRQAPGKERELVATITSGGSTYYADSVKGRFTISRDNAKNTVYLQMNILKPEDTAVYYCAATAGSPWAKSRYGYWGQGTQVTVSS” here?
The value was “low polyreactivity”.

Which “polyreactivity (PSR sort gate)” value does the source give for “QVQLVESGGGLVQAGGSLRLSCAASGFTFGFYAMGWYRQAPGEEWELVATISSAGSTTYADSVKGRFTLSRDNAKHTVYLQMNSLKPEETAVYYCATRRWSWPQFRTGDYWGQGTQVTVSS” here?
The value was “high polyreactivity”.

For “QVQLVESGGGLVQAGGSLRLSCAASGFTFGFYAMGWYRQAPGKERELVATINYNGGSTYYADSVKGRFTISRDNAKNTVYLEMNSLKPEDTAVYYCATDYGWAPSYWYDSCGQGTQVTVSS”, which “polyreactivity (PSR sort gate)” value is on record?
The value was “low polyreactivity”.

Which “polyreactivity (PSR sort gate)” value does the source give for “QVQLVESGGGLVQAGGSLRLSCAASGFTFGHYAMGRYRQAPGKERELVAAIRWSGGSTYYADSVKGRFTISRDNAKNTVYLQMNSLKPEDTAVYYCAADGEDSLWTGYDYDYWGQGTQVTVSS” here?
Its value is “low polyreactivity”.

For “QVQLVESGGGLVQAGGSLRLSCAASGFTFGHYAMGWDRQAPGKERELVAAISSGDRTYYADSVKGRFTISRDNAKNTVYLQMNSLKPEDTAVYSCNAVYYSWAQSARFDYWGQGTQVTVSS”, which “polyreactivity (PSR sort gate)” value is on record?
The value was “low polyreactivity”.

Which “polyreactivity (PSR sort gate)” value does the source give for “QVQLVESGGGLVQAGGSLRLSCAASGFTFGHYAMGWYRQAPGKERELVAAIRWSGGSTYYADSVKGRITISRDHAKNTVYLQMNSLKPEDTAVYYCGARRFDGYDYDYWGQGTQVTESS” here?
The value was “low polyreactivity”.

Which “polyreactivity (PSR sort gate)” value does the source give for “QVQLVESGGGLVQAGGSLRLSCAASGFTFGKYDMGWYRQAPGKERELVATITSSGDSTYYADSVKGRFTISRDNAKNTVYLQMNSLKPEDTAVYYCATPYGRHGWFYLYDYWGQGTQVTVSS” here?
Its value is “low polyreactivity”.

For “QVQLVESGGGLVQAGGSLRLSCAASGFTFGLNAMGWYRQAPGKERELVAGISRNGGRTYYADSVKGRFTISRDNAKNTVYLQMNSLKPDDTAVYYCNKVVSTYWTKSRVQWRYSRYDYWGQGTQVTVSS”, which “polyreactivity (PSR sort gate)” value is on record?
Its value is “high polyreactivity”.

Which “polyreactivity (PSR sort gate)” value does the source give for “QVQLVESGGGLVQAGGSLRLSCAASGFTFGNNAMGWYRQAPGKERELVAGISRTGGRTYYADSVKGRFTISRDNAKNTVYLQMNSLKPEDTAVYYCNAVSTLYTGYDYWGQGTQVTVSS” here?
The value was “high polyreactivity”.

For “QVQLVESGGGLVQAGGSLRLSCAASGFTFGNNAMGWYRQAPGTERELVAAISYGGGRTYYADSVKGRFTISRDNAKNTVYLQMNSLKPEDTAVYYCAKDPKYPLSGGYDYWGQGTQVTVSS”, which “polyreactivity (PSR sort gate)” value is on record?
Its value is “low polyreactivity”.

Which “polyreactivity (PSR sort gate)” value does the source give for “QVQLVESGGGLVQAGGSLRLSCAASGFTFGNYAMGWYRQAPGKERELVAVISRSGGNTYYADSVKGRFTISRDNAKNTVYLQMNSLKPEDTAVYYCAATLVGKVFRRFDYWGQGTQVTVSS” here?
The value was “high polyreactivity”.

For “QVQLVESGGGLVQAGGSLRLSCAASGFTFGPNTMGWYRQAPGKERELVAAISARGGRTYYADSVKGRFTISRDTAKNTVYLQMNSLKPEDTAVYYCAAPGYVRTGVTYGGYYWGQGTQVTVSS”, which “polyreactivity (PSR sort gate)” value is on record?
Its value is “high polyreactivity”.

For “QVQLVESGGGLVQAGGSLRLSCAASGFTFGPYTMGWYRQAPGKERELVAAISRSGTGTYYADSVKGRFTISRDNAKNTVYLQMNSLKPEDTAVYYCAADNGDNHGYYWGQGTQVTLSS”, which “polyreactivity (PSR sort gate)” value is on record?
The value was “high polyreactivity”.

With “QVQLVESGGGLVQAGGSLRLSCAASGFTFGRNAIVWYRQAPGKERELVASIDWSGGSTYYADSVKGRFTISRDNAKNTVYLQMNSLKPEDTAVYYCAVGPNSVGNRSYGFDYWGQGTQVTVSS” as the sequence, how does the “polyreactivity (PSR sort gate)” value read?
The value was “low polyreactivity”.

For “QVQLVESGGGLVQAGGSLRLSCAASGFTFGRYAMGWYRQAPGKEREFVAAITWSGGGTYYADSVKGRFTISRDNAKNTVYLQMNSLKPEDTAVYYCAADRRAYGGGYWGQRTQVTVSS”, which “polyreactivity (PSR sort gate)” value is on record?
The value was “high polyreactivity”.

Which “polyreactivity (PSR sort gate)” value does the source give for “QVQLVESGGGLVQAGGSLRLSCAASGFTFGRYAMGWYRQAPGKERELLAGITWSGGSTSYADSVKGRFTISRDNAKNTVYFQMNSLKPEDTAVYYCATRARYTRVQGRRYAYDYWGQGTQVTVSS” here?
Its value is “high polyreactivity”.

For “QVQLVESGGGLVQAGGSLRLSCAASGFTFGRYAMGWYRQAPGKERELVAAINYTDGSTYYADSVKGRFTISRDNAKNTVYLQMNSLKPEDTAGYYCAATTLSFEGGKYWSKYDYWGQGTQVTVSS”, which “polyreactivity (PSR sort gate)” value is on record?
The value was “low polyreactivity”.

Which “polyreactivity (PSR sort gate)” value does the source give for “QVQLVESGGGLVQAGGSLRLSCAASGFTFGRYAMGWYRQAPGKERELVAAISFSGGRTYYADSVKGRFTISRDNAKNTVYLQMNSLKPEDTAVYYCNTAYWYSLYDYWGQGTQVTVSS” here?
The value was “high polyreactivity”.

Which “polyreactivity (PSR sort gate)” value does the source give for “QVQLVESGGGLVQAGGSLRLSCAASGFTFGRYAMGWYRQAPGKERELVAAITRGSGGTYYADSVKGRFTISRDNAKNTVYLQMNSLKPEDTAVYYCATGSRSRGALRYAHFDYWGQGTQVTESS” here?
The value was “high polyreactivity”.

For “QVQLVESGGGLVQAGGSLRLSCAASGFTFGRYAMGWYRQAPGKERELVAAITWSGGTTTYYADSVKGRFTISRDNAKNTVYLQMTSLKPEDTAVYYCAADLYFYIYSYNYWGQGTQVTVSS”, which “polyreactivity (PSR sort gate)” value is on record?
Its value is “low polyreactivity”.

For “QVQLVESGGGLVQAGGSLRLSCAASGFTFGRYAMGWYRQAPWKERELVADITWSGGSTYYADSVKGRFSISRDFAKNTVYLQMNSLKPEDTAVYYCNRLSKNREYDYWGQGTQVNVSS”, which “polyreactivity (PSR sort gate)” value is on record?
The value was “high polyreactivity”.

Which “polyreactivity (PSR sort gate)” value does the source give for “QVQLVESGGGLVQAGGSLRLSCAASGFTFGSNAMGWYRQAPGKERELVAAISWSGGRTYYADSVKGRFTISRDNAKNTVYLQMNSLKPEDTAVYYCNKQYVKPWYRGYYYWGQGTQVTVSS” here?
Its value is “high polyreactivity”.

For “QVQLVESGGGLVQAGGSLRLSCAASGFTFGSNTMGWYRQAPGKERELVAAITTSGDSTYYADSVKGRFTISRDNAKNTVYLQMNSLKPEDTAVYYCAAERRYGRYYRLVRLLGQGTQVTVSS”, which “polyreactivity (PSR sort gate)” value is on record?
Its value is “high polyreactivity”.

For “QVQLVESGGGLVQAGGSLRLSCAASGFTFGSYAMGWYRQAPGKEREFVAAIRRSGSSTYYADSVKGRFTISRDNAKNTVYLQMTSLKPEDTAVYYCAADVYRRLRRYRYYYWGQGTQVTVSS”, which “polyreactivity (PSR sort gate)” value is on record?
The value was “low polyreactivity”.

For “QVQLVESGGGLVQAGGSLRLSCAASGFTFGSYAMGWYRQAPGKEREFVAAISLGGARTYYADSVKGRFTISRDNAKNTVYLQMNSLKPEDTAVYYCNARGIGRSTKWSSRDYWGQGTQVTVSS”, which “polyreactivity (PSR sort gate)” value is on record?
Its value is “high polyreactivity”.

For “QVQLVESGGGLVQAGGSLRLSCAASGFTFGSYAMGWYRQAPGKERELVAAISTSGDTTYYADSVKGRFTISRDNAKNTVYLQMNSLKPEDTAVYYCAAYDWGWPYTLIPFYYWGQGTQVTVSS”, which “polyreactivity (PSR sort gate)” value is on record?
The value was “low polyreactivity”.

For “QVQLVESGGGLVQAGGSLRLSCAASGFTFGSYAMGWYRQAPGKERELVAGITFSTGTTSYADSVKGRFTISRDNAKTTVYLQMNSLKPEDTAVYYCAADLIPNEDYWGQGTQVTVSS”, which “polyreactivity (PSR sort gate)” value is on record?
The value was “low polyreactivity”.

With “QVQLVESGGGLVQAGGSLRLSCAASGFTFGSYAMGWYRQAPGKERELVAVITRSGRTNYADSVKGRFTISRDTAKNTVYLQMNSLKPEDTAVYYCNADDVDDEVSPELTEMDYWGQGTQVTVSS” as the sequence, how does the “polyreactivity (PSR sort gate)” value read?
Its value is “low polyreactivity”.

For “QVQLVESGGGLVQAGGSLRLSCAASGFTFGSYTMGWYRQAPGKERELVAAITGRGGSTYYADSVKARFTISRDNAKNTVYLQMNSLKPVDTAVYYCAGRRGTTYVGYDYWGQGTQVTVSS”, which “polyreactivity (PSR sort gate)” value is on record?
The value was “high polyreactivity”.

For “QVQLVESGGGLVQAGGSLRLSCAASGFTFGTYAMGWYRQAPGKERELVAGITSGDGTYYADSVKGRFTISRDNAKNTVYLQMNSLKPEDTAVYYCAVVHYQQYSWRVYFYPYDYWGQGTQVTVSS”, which “polyreactivity (PSR sort gate)” value is on record?
Its value is “high polyreactivity”.

With “QVQLVESGGGLVQAGGSLRLSCAASGFTFGVYAMGWYRQAPGKERELVAAISTTVGSTYYADSVKGRFTISRDNAKNTVYLQMNSLKPEDTAVYYCNADGYPDVGAGTYGYWGQGTQVTVSS” as the sequence, how does the “polyreactivity (PSR sort gate)” value read?
Its value is “low polyreactivity”.

— the nanobody polyreactivity screen of Harvey et al. (2022)
